The source of these data is patent US20190282704A1 (ZOETIS SERVICES, published 2019).

What is called Kd is the free concentration of one partner at which half of the binding sites on the other are occupied at equilibrium, for simple one-to-one binding.

B1: Peptide ZTS-563 (peptide)
peptide: CAKVSMPADNFERKNFILTC
modifications: linker 1-20 via mT2a; reading uncertain
B4: Peptide ZTS-562 (peptide)
peptide: CEISVPADTFERKSFC
modifications: constrained through the terminal cysteines; linker only shown in FIG. 13A
B9: ZTS-361 (antibody)
heavy: QVLLVQSGAEVRTPGASVKIFCKASGYSFTSYTIHWLRQAPAQGLEWMGNINPTSGYTENNQRFKDRLTLTADTSTNTAYMELSSLRSADTAMYYCARWGFKYDGEWSFDVWGAGTTVTVSSASTTAPSVFPLAPSCGTTSGATVALACLVLGYFPEPVTVSWNSGALTSGVHTFPAVLQASGLYSLSSMVTVPSSRWLSDTFTCNVAHPPSNTKVDKTVRKTDHPPGPKPCDCPKCPPPEAAGAPSIFIFPPKPKDTLSISRTPEVTCLVVDLGPDDSDVQITWFVDNTQVYTAKTSPREEQFNSTYRVVSVLPILHQDWLKGKEFKCKVNSKSLPSPIERTISKAKGQPHEPQVYVLPPAQEELSRNKVSVTCLIKSFHPPDIAVEWEITGQPEPENNYRTTPPQLDSDGTYFVYSKLSVDRSHWQRGNTYTCSVSHEALHSHHTQKSLTQSPGK
light: EIQMTQSPSSLSASPGDRVTITCRASQGISIWLSWYQQKPGNIPKVLINKASNLHIGVPSRFSGSGSGTDFTLTISSLEPEDAATYYCLQSQTYPLTFGGGTKLEIKRSDAQPSVFLFQPSLDELHTGSASIVCILNDFYPKEVNVKWKVDGVVQNKGIQESTTEQNSKDSTYSLSSTLTMSSTEYQSHEKFSCEVTHKSLASTLVKSFQRSECQRE

Bridges are numbered along the chain shown (N, C = ends). Where no end group is shown, it is not given here. mT2a = not defined here

The target in the assay “ZTS-361” is B9. The assay can be described thus: cell-based or functional assay.
In assay [1] the target is T1, equine IL-31 (Equine_IL31) (equine).
T1 construct: Production of the protein used as Biacore surface is not described; also called horse IL-31
T1 chain: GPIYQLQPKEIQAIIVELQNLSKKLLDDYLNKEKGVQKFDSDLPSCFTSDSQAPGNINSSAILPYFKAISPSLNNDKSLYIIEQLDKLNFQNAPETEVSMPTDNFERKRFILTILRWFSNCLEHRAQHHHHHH
In words: Biacore, IL-31 surface, single antibody concentration.

In the next assay the target is T2, human IL-31 (human, UniProt Q6EBC2 24-164).
T2 construct: Production of the protein used as Biacore surface is not described
T2 sequence: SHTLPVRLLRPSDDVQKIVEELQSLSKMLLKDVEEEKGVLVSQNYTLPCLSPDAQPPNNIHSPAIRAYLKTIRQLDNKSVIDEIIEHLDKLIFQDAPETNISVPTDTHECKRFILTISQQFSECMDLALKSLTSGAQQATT
Described as above.

The target in assay [2] is T3, canine IL-31 (Canine_IL31) (canine).
T3 chain: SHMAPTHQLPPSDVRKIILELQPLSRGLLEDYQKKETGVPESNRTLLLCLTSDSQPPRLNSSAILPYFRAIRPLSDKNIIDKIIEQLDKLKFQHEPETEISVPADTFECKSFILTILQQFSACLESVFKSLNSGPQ
In words: cell-based or functional assay.

The target in the next assay is T4, Peptide ZTS-561 (terminal cysteines constrained with the mT2a linker (CLIPS)).
T4 construct: Unconjugated constrained peptide; also called canine IL-31 15H05 mimotope ZTS-561
In words: Biacore, peptide ZTS-561 immobilised on the surface.

The assay “Peptide ZTS-562” addresses B4. In words: Biacore, peptide ZTS-562 immobilised on the surface. In general terms: SPR reads the build-up and loss of mass on a sensor chip optically.
The target in the assay “Peptide ZTS-563” is B1. In words: Biacore, peptide ZTS-563 immobilised on the surface.
For the next assay, the target named is T5, Peptide ZTS-564 (terminal cysteines constrained with the mT2b linker (CLIPS)).
T5 peptide: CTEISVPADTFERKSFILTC
In words: Biacore, peptide ZTS-564 immobilised on the surface.

For the molecule B1, the “IC50 of peptide blocking mAb ZTS-361 inhibition of feline IL-31 mediated STAT3 phosphorylation in FCWF-4 cells, unconjugated” value with ZTS-361 worked out at 1.74 µg/mL.

B2: ZIL159 (antibody, V domains shown)
VH: EVQLVESGGDLVKPAGSLRLSCVASGFTFSSYVMTWVRQAPGKGLQWVAGINSEGSRTAYADAVKGRFTISRDNAKNTLYLQIDSLRAEDTAIYYCATGDIVATGTSYWGQGTLVTVSS
VL: SNVLTQPPSVSVSLGQTATISCSGETLNRFYTQWFQQKAGQAPVLVIYKDTERPSGIPDRFSGSSSGNIHTLTISGARAEDEAAYYCKSAVSIDVGVFGGGTHLTVFR
notes: Recombinant fully canine IgG (65_1 isotype); also called CAN-ZIL159
In the case of B2, in assay [1], the binding result is on record as “no binding”.

B3: mouse anti IL-31 antibody 11E12 (antibody, V domains shown)
VH: QVQLQQSGAELVKPGASVKLSCKASGYTFKYYDINWVRQRPEQGLEWIGWIFPGDGGTKYNETFKGKATLTTDKSSSTAYMQLSRLTSEDSAVYFCARGGTSVIRDAMDYWGQGTSVTVSS
VL: DIVLTQSPASLAVSLGQRATISCRASESVDNYGISFMHWYQQKPGQPPKLLIYRASNLESGIPARFSGSGSRTDFTLTINPVETDDVATYYCQQSNKDPLTFGAGTKLELK
notes: Mouse monoclonal used for comparison; also called Mu-11E12; MU-11E12
Take B3: the binding result (in assay [1]; with human IL-31) was “no binding” in each case.

Regarding B4, the “IC50 of peptide blocking mAb ZTS-361 inhibition of feline IL-31 mediated STAT3 phosphorylation in FCWF-4 cells, unconjugated” value with ZTS-361 is 1.05 µg/mL.

B5: mouse anti IL-31 antibody 15H05 (antibody, V domains shown)
VH: QVQLQQSAAELARPGASVKMSCKTSGYTFTSYTIHWIKQRPGQGLEWIGNINPTSGYTENNQRFKDKTTLTVDRSSNTAYLQLHSLTSEDSAVYFCARWGFKYDGEWSFDVWGAGTTVTVSS
VL: DIQMNQSPSSLSASLGDTITVTCRASQGISIWLSWYQQKPGNIPKVLINKASNLHIGVPPRFSGSGSGTHFTLTITSLQPEDIATYYCLQSQTYPLTFGGGTKLEIN
notes: Mouse hybridoma monoclonal; also called Mu-15H05; MU-15H05
For B5, the binding result in assay [1] was “binds”; in the assay with human IL-31, “no binding”.

B6: ZIL154 (antibody, V domains shown)
VH: EVHLVESGGDLVKPWGSLRLSCVASGFTFSDRGMSWVRQSPGKGLQWVAYIRYDGSRTDYADAVEGRFTISRDNAKNTLYLQMNSLRAEDTAVYYCARWDGSSFDYWGQGTLVTVSS
VL: DIVVTQTPLSLSVSPGETASFSCKASQSLLHSDGNTYLDWFRQKPGQSPQRLIYKVSNRDPGVPDRFSGSGSGTDFTLRISGVEADDAGLYYCMQAIHFPLTFGAGTKVELKR
notes: Recombinant fully canine IgG (65_1 isotype); also called CAN-ZIL154
As for B6, the binding result (in assay [1]; with human IL-31) was “no binding” throughout.

B7: ZIL94 (antibody, V domains shown)
VH: EVQLVDSGGDLVKPGGSLRLSCVASGFTFSTYFMSWVRQAPGRGLQWVALISSDGSGTYYADAVKGRFTISRDNAKNTLYLQMNSLRAEDTAMYYCAIFWRAFNDWGQGTLVTVSS
VL: QTVVIQEPSLSVSPGGTVTLTCGLNSGSVSTSNYPGWYQQTRGRTPRTIIYDTGSRPSGVPNRFSGSISGNKAALTITGAQPEDEADYYCSLYTDSDILVFGGGTHLTVLR
notes: Recombinant fully canine IgG (65_1 isotype); also called CAN-ZIL94
As for B7, the binding result in assay [1] was “no binding”.

B8: ZTS-927 (antibody)
heavy: QVLLVQSGAEVRTPGASVKIFCKASGYSFTSYTIHWLRQAPAQGLEWMGNINPTSGYTENNQRFKDRLTLTADTSTNTAYMELSSLRSADTAMYYCARWGFKYDGEWSFDVWGAGTTVTVSSASTTAPSVFPLAPSCGTTSGATVALACLVLGYFPEPVTVSWNSGALTSGVHTFPAVLQASGLYSLSSMVTVPSSRWLSDTFTCNVAHPPSNTKVDKTVRKTDHPPGPKPCDCPKCPPPEMLGGPSIFIFPPKPKDTLSISRTPEVTCLVVDLGPDDSDVQITWFVDNTQVYTAKTSPREEQFNSTYRVVSVLPILHQDWLKGKEFKCKVNSKSLPSPIERTISKAKGQPHEPQVYVLPPAQEELSRNKVSVTCLIKSFHPPDIAVEWEITGQPEPENNYRTTPPQLDSDGTYFVYSKLSVDRSHWQRGNTYTCSVSHEALHSHHTQKSLTQSPGK
light: EIQMTQSPSSLSASPGDRVTITCRASQGISIWLSWYQQKPGNIPKVLINKASNLHIGVPSRFSGSGSGTDFTLTISSLEPEDAATYYCLQSQTYPLTFGGGTKLEIKRSDAQPSVFLFQPSLDELHTGSASIVCILNDFYPKEVNVKWKVDGVVQNKGIQESTTEQNSKDSTYSLSSTLTMSSTEYQSHEKFSCEVTHKSLASTLVKSFQRSECQRE
For B8, the “IC50, inhibition of canine IL-31-induced STAT3 phosphorylation, canine DH82 cells” value in assay [2] turned out to be 23.2 µg/mL. The “IC50, inhibition of canine IL-31-induced STAT3 phosphorylation, feline FCWF4 cells” value in assay [2] was determined as 39.6 µg/mL. Further, the Kd came to 1.02 nM with Peptide ZTS-561, 2.78 nM in the assay with Peptide ZTS-562, 1.48 nM with Peptide ZTS-563 and 4.13 nM in the assay with Peptide ZTS-564.

For the molecule B9, in assay [2], the “IC50, inhibition of canine IL-31-induced STAT3 phosphorylation, canine DH82 cells” value worked out at 23 µg/mL and the “IC50, inhibition of canine IL-31-induced STAT3 phosphorylation, feline FCWF4 cells” value is 38.8 µg/mL.

B10: ZIL69 (antibody, V domains shown)
VH: EVQLVESGGDLVKPAGSLRLSCVASGFTFSSYAMKWVRQAPGKGLQWVATINNDGTRTGYADAVRGRFTISKDNAKNTLYLQMDSLRADDTAVYYCTKGNAESGCTGDHCPPYWGQGTLVTVSS
VL: SSVLTQPPSVSVSLGQTATISCSGESLNKYYAQWFQQKAGQAPVLVIYKDTERPSGIPDRFSGSSAGNTHTLTISGARAEDEADYYCESAVSSETNVFGSGTQLTVLR
notes: Recombinant fully canine IgG (65_1 isotype); also called CAN-ZIL69
In the case of B10, the binding result in assay [1] is “no binding”.

B11: ZIL171 (antibody, V domains shown)
VH: EVQLVESGGDLVKPAGSLRLSCVASGFTFRTYVMNWVRQAPGKGLQWVASINGGGSSPTYADAVRGRFTVSRDNAQNSLFLQMNSLRAEDTAIYFCVVSMVGPFDYWGHGTLVTVSS
VL: SSVLTQPPSVSVSLGQTATISCSGKSLSYYYAQWFQQKAGQAPVLVIYKDTERPSGIPDRFSGSSSGNTHTLTISGARAEDEADYYCESAVSSDTIVFGGGTHLTVLR
notes: Recombinant fully canine IgG (65_1 isotype); also called CAN-ZIL171
As to B11, the binding result in assay [1] is “no binding”.
